Molecular target: Trx-VL(NP)-GUS(IV-5)KW (Escherichia coli)
Experiment: cell-based or functional assay

average S/B ratio in 11 minutes after the beginning of reaction (GUS activity): 13
average S/B ratio in 20 minutes after the beginning of reaction (GUS activity): 42.3
Substance: PentaHis antibody (QIAGEN)

— patent US20220119789A1
